In paper PMC9371665:

Target: TnsB transposase of the type V-K CAST element from Scytonema hofmanni (ShCAST), full length (Scytonema hofmanni)
Assay: cryo-EM structure; TnsB strand-transfer complex: strand-transfer DNA and purified TnsB mixed 1:6, 26 mM Hepes pH 7.5, 5 mM Tris-HCl pH 7.5, 20 mM KCl, 100 mM NaCl, 0.2 mM MgCl2, 15 mM MgOAc2, 37 °C 40 min, then size-exclusion chromatography; C2 symmetry imposed; 3.7 Å

- stoichiometry N: 4
Substance: TnsB transposase of the type V-K CAST element from Scytonema hofmanni (ShCAST), full length (enzyme)
